Target: CD47 on the cell surface (A431, Raji, SKBR-3, NCI-H441, NK92MI-CD16a cells) (human) (UniProt Q08722)
Experiment: cell-based or functional assay

Anti-PD-L1(12A4)-Fc1-D1-D2-D3-Fc2 (bispecific antibody), sequence (chain): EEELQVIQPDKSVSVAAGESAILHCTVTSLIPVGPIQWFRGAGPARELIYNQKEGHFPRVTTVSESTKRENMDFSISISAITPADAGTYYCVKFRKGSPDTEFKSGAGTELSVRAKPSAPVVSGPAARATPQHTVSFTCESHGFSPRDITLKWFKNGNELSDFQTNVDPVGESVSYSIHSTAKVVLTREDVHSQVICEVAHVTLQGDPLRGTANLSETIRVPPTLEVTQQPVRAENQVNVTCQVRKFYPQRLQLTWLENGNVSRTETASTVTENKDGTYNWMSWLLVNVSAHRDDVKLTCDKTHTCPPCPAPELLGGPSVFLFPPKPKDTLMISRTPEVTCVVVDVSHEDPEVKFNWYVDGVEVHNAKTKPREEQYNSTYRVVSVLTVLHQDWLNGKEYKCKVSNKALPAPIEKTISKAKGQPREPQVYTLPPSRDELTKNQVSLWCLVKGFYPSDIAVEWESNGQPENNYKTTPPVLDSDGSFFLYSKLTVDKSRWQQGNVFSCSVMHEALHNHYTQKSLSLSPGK
Anti-PD-L1(12A4)-Fc1-D1-D2-Fc2 (bispecific antibody), sequence (chain): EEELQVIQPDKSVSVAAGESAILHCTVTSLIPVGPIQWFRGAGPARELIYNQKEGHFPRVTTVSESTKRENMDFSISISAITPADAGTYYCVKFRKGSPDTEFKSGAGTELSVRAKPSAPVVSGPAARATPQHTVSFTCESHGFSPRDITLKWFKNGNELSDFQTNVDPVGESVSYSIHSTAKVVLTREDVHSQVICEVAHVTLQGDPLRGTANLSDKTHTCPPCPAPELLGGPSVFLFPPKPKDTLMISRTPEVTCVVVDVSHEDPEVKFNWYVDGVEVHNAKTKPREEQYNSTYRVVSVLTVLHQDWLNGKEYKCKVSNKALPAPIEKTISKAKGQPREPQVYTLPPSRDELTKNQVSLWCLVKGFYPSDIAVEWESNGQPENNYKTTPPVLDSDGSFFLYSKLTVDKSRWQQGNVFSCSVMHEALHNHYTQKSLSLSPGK
Anti-PD-L1(12A4)-Fc1-D1-Fc2 (bispecific antibody), sequence (chain): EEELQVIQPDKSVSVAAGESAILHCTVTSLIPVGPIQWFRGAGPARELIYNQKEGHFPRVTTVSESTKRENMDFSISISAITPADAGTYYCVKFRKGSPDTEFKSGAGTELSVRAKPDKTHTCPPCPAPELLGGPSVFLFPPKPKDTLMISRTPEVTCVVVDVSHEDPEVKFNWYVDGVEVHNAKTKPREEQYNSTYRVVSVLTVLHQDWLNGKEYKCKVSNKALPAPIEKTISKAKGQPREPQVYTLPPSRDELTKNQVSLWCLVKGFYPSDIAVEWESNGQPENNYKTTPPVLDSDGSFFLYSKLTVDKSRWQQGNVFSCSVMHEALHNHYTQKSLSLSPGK

Row | Substance | toxic side effects caused by NK cells (ADCC on NK92MI-CD16a cells), reduction against the D1^m proteins [fold]
1 | Anti-PD-L1(12A4)-Fc1-D1-D2-D3-Fc2 (bispecific antibody) | > 1000
2 | Anti-PD-L1(12A4)-Fc1-D1-D2-Fc2 (bispecific antibody) | > 1000
3 | Anti-PD-L1(12A4)-Fc1-D1-Fc2 (bispecific antibody) | > 1000
